± gives the half width of the 95% confidence interval.
How the values were obtained:
[1] = folding stability dG unfold from trypsin proteolysis; higher = more stable
Procedure, shortened: (§1)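 Mini-proteins designed to be under 80 residues and free of cysteine were carried in a PA-tagged cDNA display construct and digested with trypsin and with chymotrypsin. Each protease was applied at 11 threefold-diluted concentrations, alongside a no-protease condition, before sequencing. K50 came from Bayesian fitting of the sequencing counts, and unfolding free energy was obtained by comparing it with a sequence-predicted unfolded-state K50 and a shared folded-state K50, for each protease separately or for both together. Designs were retained only if their AlphaFold2 dimer inter-PAE exceeded 15.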

[2] = folding stability dG unfold from chymotrypsin proteolysis; higher = more stable
Procedure, shortened: as §1

[3] = folding stability dG unfold (combined trypsin and chymotrypsin); higher = more stable
Procedure, shortened: as §1

Sequence	folding stability dG unfold [1] [kcal/mol]	folding stability dG unfold [2] [kcal/mol]	folding stability dG unfold [3] [kcal/mol]
SAGGRGVGRPGSRLLLVAEADLEPDEVSVEELAERIREAFPDVRVVDLRVEVGGEKARLFALVELDVSAGGS [r8_202_TrMRF]	0.917 ± 0.077	1.64 ± 0.067	1.41 ± 0.092
SAGGRIHIPIPLNQAREILKKLAPDGRDVTAEPQGPSKDNVYYTIEFEPPKNGNEVDIEIWIPPPGDSAGGS [r16_486_TrROS]	-0.000485 ± 0.1	-0.234 ± 0.36	0.0968 ± 0.18
SAGGRIRIEYDPENGTITIYVPTPDGEITPDQVEEIAKLLMELWPNIEVEIEPHPNGMVRITIKIPPKSAGG [r13_291_TrROS]	3 ± 0.19	3.81 ± 0.23	3.54 ± 0.19
SAGGRIVEAAKEAGLDGVDLKEIRPLPDGGVEIRILPPPGMPEEAAAEAAERIERALREEFPDTRIDTESAG [r5_101_TrMRF]	-0.835 ± 0.33	0.207 ± 0.056	-0.209 ± 0.31
SAGGRRPVTAEEAADRLMKELGIPGLKNIKDVTMEYEVYDPDGKPWSRVDITIKIKMPPEQRDRLKKLSAGG [r13_552_TrROS]	0.607 ± 0.12	0.436 ± 0.19	0.51 ± 0.16
SAGGRTLEFNMKSNNPNMMENEISKLLRELGFPPGFDIEVNPERDPNGRYTYPITITVDNPELADKISAGGS [r8_85_TrROS]	0.106 ± 0.43	-0.00324 ± 0.54	-0.0764 ± 0.42
SAGGRVDVRVERVGEGAVITLLADVEDPEPLVELLEASGLPVELARIEPVRDPVTGRLLVRAVFRVPSAGGS [r16_699_TrMRF]	1.12 ± 0.069	1.14 ± 0.082	1.13 ± 0.095
SAGGSAAKIDPKNGTITIYNKKTGKKIKIKIKNLPPGAKVTIEIKNGKITIKVDGKTIEINIKEIKSAGGSA [r15_864_TrROS_Hall]	2.1 ± 0.26	3.19 ± 0.19	2.85 ± 0.29
SAGGSAAKITEVEVEELEDGEVLIRVKVKPEDIDALLELAKKLPEENIELVEKREDGYYVLRIKRPSAGGSA [r15_386_TrROS_Hall]	1.53 ± 0.043	1.87 ± 0.16	1.67 ± 0.15
SAGGSAAKPGETVRVVVTVRVPPGATAEELKAALEALLGPDAEVTVEVFETPDTVVVVVEVRLPPASAGGSA [r15_749_TrROS_Hall]	2.65 ± 0.26	2.66 ± 0.11	2.74 ± 0.19
SAGGSAATTVAVNGKEITIVSVDPATGKVTIAVPENVPESVIQAAKDLLEAQGLPVEVKRVPPEKLSAGGSA [r15_570_JUSTAS]	1.42 ± 0.044	1.3 ± 0.013	1.33 ± 0.05
SAGGSADADDVTIVINMFRNPNNKGWFFRIEIQDPDKEREIFMPFDDIPKFQEAGLKIEITEWYPFSAGGSA [r15_783_TrROS]	2.41 ± 0.068	3.29 ± 0.038	3.03 ± 0.086
SAGGSADENGKPKPTLIIKIEVEHPNGQKFPLSFIFKSPEEAEEIANELANNGYEVNIRLMPLDQISAGGSA [r15_906_TrROS]	1.07 ± 0.024	1.71 ± 0.044	1.55 ± 0.059
SAGGSADGRVVELPVRIRLYRRDPVSGRWELVEEFEVPVRVPAPKDAVVGLRIERRGDRFRIVVGVSAGGSA [r15_537_TrMRF]	2.74 ± 0.08	3.537 ± 0.019	3.25 ± 0.07
SAGGSADIARKIAKWLAEMYGIEEIKVKDIDPNGYIKVEIKMRMYDDGEPVEHKMDIEIPIPPGDLSAGGSA [r15_646_TrROS]	1.3 ± 0.035	2.3 ± 0.031	1.98 ± 0.081
SAGGSADPIRTISGPVPLEEIEANIKKLLKENPNLDAAVFYIPEIGSKITIYFKNGKIVKIEIDLSSAGGSA [r15_166_TrMRF]	2.88 ± 0.084	4.79 ± 0.13	4.59 ± 0.16
SAGGSADVVLVEVRPPVLDPEGRPLLTLVLRLPDGGSRTLVVELSDLAGALANLPPNVRVDEIRPLSAGGSA [r15_339_TrMRF]	0.443 ± 0.093	2.31 ± 0.035	2.01 ± 0.067
SAGGSAEEARALAEQVREEVRAAHAPDEVVTVTVELPDGTRVEVTFDAAGEVLSVTIYRPDGTPELSAGGSA [r2_84_JUSTAS]	1.04 ± 0.025	2.27 ± 0.049	1.88 ± 0.077

From the supplement of paper PMC12764529
